In publication doi:10.1101/2020.02.14.949818 (bioRxiv, 2020):

B1: mouse FUT8 (MmFUT8_(68-575)) (domain or fragment)
chain: RIPEGPIDQGTATGRVRVLEEQLVKAKEQIENYKKQARNGLGKDHEILRRRIENGAKELWFFLQSELKKLKHLEGNELQRHADEILLDLGHHERSIMTDLYYLSQTDGAGDWREKEAKDLTELVQRRITYLQNPKDCSKARKLVCNINKGCGYGCQLHHVVYCFMIAYGTQRTLILESQNWRYATGGWETVFRPVSETCTDRSGLSTGHWSGEVNDKNIQVVELPIVDSLHPRPPYLPLAVPEDLADRLLRVHGDPAVWWVSQFVKYLIRPQPWLEKEIEEATKKLGFKHPVIGVHVRRTDKVGTEAAFHPIEEYMVHVEEHFQLLARRMQVDKKRVYLATDDPTLLKEAKTKYSNYEFISDNSISWSAGLHNRYTENSLRGVILDIHFLSQADFLVCTFSSQVCRVAYEIMQTLHPDASANFHSLDDIYYFGGQNAHNQIAVYPHKPRTEEEIPMEPGDIIGVAGNHWDGYSKGINRKLGKTGLYPSYKVREKIETVKYPTYPEAEK
B2: truncated human FUT8 (HsFUT8_(105-575)) (domain or fragment)
chain: RNGLGKDHEILRRRIENGAKELWFFLQSELKKLKNLEGNELQRHADEFLLDLGHHERSIMTDLYYLSQTDGAGDWREKEAKDLTELVQRRITYLQNPKDCSKAKKLVCNINKGCGYGCQLHHVVYCFMIAYGTQRTLILESQNWRYATGGWETVFRPVSETCTDRSGISTGHWSGEVKDKNVQVVELPIVDSLHPRPPYLPLAVPEDLADRLVRVHGDPAVWWVSQFVKYLIRPQPWLEKEIEEATKKLGFKHPVIGVHVRRTDKVGTEAAFHPIEEYMVHVEEHFQLLARRMQVDKKRVYLATDDPSLLKEAKTKYPNYEFISDNSISWSAGLHNRYTENSLRGVILDIHFLSQADFLVCTFSSQVCRVAYEIMQTLHPDASANFHSLDDIYYFGGQNAHNQIAIYAHQPRTADEIPMEPGDIIGVAGNHWDGYSKGVNRKLGRTGLYPSYKVREKIETVKYPTYPEAEK

How the values were obtained:
crystal structure = biological target: the molecule itself; experiment: crystal structure
SEC-SAXS = biological target: the molecule itself; experiment: SEC-SAXS

| Protein | binding result (crystal structure) | stoichiometry N (SEC-SAXS) |
| --- | --- | --- |
| B1 | binds |  |
| B2 |  | 2 |
